Assay results from PMC3285605.

Key:
[1] = target: soluble form of vesicular stomatitis virus (VSV) glycoprotein G ectodomain (Gth, aa residues 1–422) (vesicular stomatitis virus (Mudd-Summer strain, Indiana serotype)); experiment: AUC; sedimentation velocity, pH 6.7, Gth at 1.6 mg/ml, 45,000 rpm, 15°C
[2] = target: soluble form of vesicular stomatitis virus (VSV) glycoprotein G ectodomain (Gth, aa residues 1–422) (vesicular stomatitis virus (Mudd-Summer strain, Indiana serotype)); experiment: AUC
[3] = target: soluble form of vesicular stomatitis virus (VSV) glycoprotein G ectodomain (Gth, aa residues 1–422) (vesicular stomatitis virus (Mudd-Summer strain, Indiana serotype)); experiment: AUC; sedimentation velocity, pH 6.7, Gth at 0.4 mg/ml, 45,000 rpm, 15°C

“soluble form of vesicular stomatitis virus (VSV) glycoprotein G ectodomain (Gth, aa residues 1–422) (domain or fragment)” was tested, and the fractional concentration of the 10.0 S species at 1.6 mg/ml, pH 6.7 [1] was 40%, the fractional concentration of the 21.0 S species at 1.6 mg/ml, pH 6.7 [1] was 24% and the fraction of the species of about 320 kDa at pH 6.0 [2] was 30%. For the same substance, the fraction of the species of about 1,600 kDa at pH 6.0 [2] was 70%, the fractional concentration of the 10.0 S species at 0.4 mg/ml, pH 5.7 [2] was 71% and the fractional concentration of the 10.0 S species at 1.6 mg/ml, pH 5.7 [2] was 55%. The fractional concentration of the 21.0 S species at 0.4 mg/ml, pH 5.7 [2] was 29%, the fractional concentration of the 21.0 S species at 1.6 mg/ml, pH 5.7 [2] was 45% and the fractional concentration of the 21.0 S species at 0.4 mg/ml, pH 6.7 [3] was 13%.
